The results in this text go back to PMC7738868.

This experiment concerns the target fibronectin with extra-domain B (EDB-FN) (human (endogenous in U87MG and U251MG)) (UniProt P02751). Nature of the experiment: cellular uptake of rhodamine B-labelled micelles, confocal microscopy; U87MG and U251MG cells incubated 1 h at 37 °C with 100 µg/mL micelles holding 1.0, 2.5 or 5.0 wt% APTEDB-DSPE, washed with PBS, fixed; fluorescence normalised to DAPI (ImageJ); nontargeting PEG2000-DSPE micelles as …; also after EDB-FN siRNA in U87MG (uptake decreased) and over 5 min to 4 h.
UniProt P02751, sequence (P02751 32-2477): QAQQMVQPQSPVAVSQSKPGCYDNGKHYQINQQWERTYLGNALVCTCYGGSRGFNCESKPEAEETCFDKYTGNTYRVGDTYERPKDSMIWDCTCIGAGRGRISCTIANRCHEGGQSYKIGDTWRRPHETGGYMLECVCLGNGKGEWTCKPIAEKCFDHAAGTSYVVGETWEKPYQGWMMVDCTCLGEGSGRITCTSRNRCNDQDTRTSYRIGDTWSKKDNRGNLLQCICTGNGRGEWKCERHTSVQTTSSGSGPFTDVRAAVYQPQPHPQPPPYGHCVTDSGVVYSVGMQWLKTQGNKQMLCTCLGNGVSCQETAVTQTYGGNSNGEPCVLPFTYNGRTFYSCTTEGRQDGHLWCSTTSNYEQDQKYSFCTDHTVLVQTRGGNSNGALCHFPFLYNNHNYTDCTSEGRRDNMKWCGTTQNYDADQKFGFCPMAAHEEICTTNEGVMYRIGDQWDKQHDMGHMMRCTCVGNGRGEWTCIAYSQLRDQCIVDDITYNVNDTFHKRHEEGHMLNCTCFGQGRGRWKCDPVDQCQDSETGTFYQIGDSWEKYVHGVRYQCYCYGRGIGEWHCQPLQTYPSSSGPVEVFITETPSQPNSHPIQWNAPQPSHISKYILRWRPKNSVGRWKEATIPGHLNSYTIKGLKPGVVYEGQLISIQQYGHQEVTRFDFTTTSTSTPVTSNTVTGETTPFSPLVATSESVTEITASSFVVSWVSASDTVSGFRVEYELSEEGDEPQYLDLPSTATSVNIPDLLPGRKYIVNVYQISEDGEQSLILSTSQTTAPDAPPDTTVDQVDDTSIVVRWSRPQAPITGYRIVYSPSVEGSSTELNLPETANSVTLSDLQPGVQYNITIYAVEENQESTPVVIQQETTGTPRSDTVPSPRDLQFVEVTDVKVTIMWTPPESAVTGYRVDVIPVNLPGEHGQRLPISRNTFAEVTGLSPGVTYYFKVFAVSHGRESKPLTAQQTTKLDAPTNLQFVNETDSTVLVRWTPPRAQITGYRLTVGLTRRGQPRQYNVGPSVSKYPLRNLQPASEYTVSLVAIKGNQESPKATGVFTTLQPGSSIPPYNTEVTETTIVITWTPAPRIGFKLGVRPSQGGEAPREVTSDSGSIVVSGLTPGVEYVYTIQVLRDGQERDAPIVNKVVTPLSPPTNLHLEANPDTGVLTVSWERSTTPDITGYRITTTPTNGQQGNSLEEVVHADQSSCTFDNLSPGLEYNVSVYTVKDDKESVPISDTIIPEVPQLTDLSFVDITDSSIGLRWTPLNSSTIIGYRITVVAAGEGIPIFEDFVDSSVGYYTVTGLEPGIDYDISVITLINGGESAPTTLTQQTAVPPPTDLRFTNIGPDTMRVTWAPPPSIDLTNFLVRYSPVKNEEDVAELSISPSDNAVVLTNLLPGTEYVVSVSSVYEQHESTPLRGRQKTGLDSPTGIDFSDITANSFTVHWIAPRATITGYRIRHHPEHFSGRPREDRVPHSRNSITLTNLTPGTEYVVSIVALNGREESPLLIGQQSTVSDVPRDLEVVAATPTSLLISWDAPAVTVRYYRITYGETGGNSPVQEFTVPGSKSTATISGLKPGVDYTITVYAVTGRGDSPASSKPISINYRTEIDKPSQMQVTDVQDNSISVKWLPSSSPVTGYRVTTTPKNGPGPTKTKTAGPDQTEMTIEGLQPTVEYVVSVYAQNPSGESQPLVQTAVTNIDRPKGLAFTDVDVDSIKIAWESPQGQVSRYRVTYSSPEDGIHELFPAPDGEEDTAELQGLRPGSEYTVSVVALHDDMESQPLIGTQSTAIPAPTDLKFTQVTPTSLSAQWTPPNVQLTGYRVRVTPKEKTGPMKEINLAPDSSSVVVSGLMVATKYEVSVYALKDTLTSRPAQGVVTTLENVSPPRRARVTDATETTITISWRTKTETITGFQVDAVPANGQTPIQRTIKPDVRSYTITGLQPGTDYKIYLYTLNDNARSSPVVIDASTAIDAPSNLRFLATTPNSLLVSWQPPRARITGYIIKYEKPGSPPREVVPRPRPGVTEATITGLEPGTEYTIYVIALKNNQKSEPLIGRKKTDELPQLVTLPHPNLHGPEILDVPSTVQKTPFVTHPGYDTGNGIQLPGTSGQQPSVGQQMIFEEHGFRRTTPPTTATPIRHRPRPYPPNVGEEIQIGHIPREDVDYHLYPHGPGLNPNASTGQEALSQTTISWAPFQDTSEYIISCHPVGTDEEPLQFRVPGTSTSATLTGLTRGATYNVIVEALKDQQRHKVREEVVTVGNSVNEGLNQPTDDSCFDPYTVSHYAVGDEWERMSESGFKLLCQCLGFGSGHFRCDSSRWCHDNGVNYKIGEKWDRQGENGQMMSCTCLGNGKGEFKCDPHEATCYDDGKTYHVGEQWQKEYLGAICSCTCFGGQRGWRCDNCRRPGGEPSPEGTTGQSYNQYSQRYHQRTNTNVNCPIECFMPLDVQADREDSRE

“APTEDB-conjugated PEG2000-DSPE (EDB-FN-specific aptamer-like peptide on the surface of a micellar nano-DDS) (designed binder)” came in with a cellular uptake, fluorescence intensity normalised to DAPI (U87MG cells, 1.0 wt% APTEDB-DSPE) of 166 A.U; a cellular uptake, fluorescence intensity normalised to DAPI (U87MG cells, 2.5 wt% APTEDB-DSPE) of 93.2 A.U; a cellular uptake, fluorescence intensity normalised to DAPI (U87MG cells, 5.0 wt% APTEDB-DSPE) of 56.7 A.U; a cellular uptake, fluorescence intensity normalised to DAPI (U251MG cells, 1.0 wt% APTEDB-DSPE) of 76.4 A.U. Besides, the cellular uptake, fluorescence intensity normalised to DAPI (U251MG cells, 2.5 wt% APTEDB-DSPE) is 129 A.U and the cellular uptake, fluorescence intensity normalised to DAPI (U251MG cells, 5.0 wt% APTEDB-DSPE) was 53.4 A.U.
